Laboratory results reported in US20150344570A1 (published 2015).

Molecular target: FcγRIIa H (human, UniProt P12318 34-217)
Assay: SPR Biacore, captured antibody, FcγR analyte; vs GpH7-A5/GpH7-B3/GpL16-k0 = 100

FcγRIIa H, sequence (P12318 34-217): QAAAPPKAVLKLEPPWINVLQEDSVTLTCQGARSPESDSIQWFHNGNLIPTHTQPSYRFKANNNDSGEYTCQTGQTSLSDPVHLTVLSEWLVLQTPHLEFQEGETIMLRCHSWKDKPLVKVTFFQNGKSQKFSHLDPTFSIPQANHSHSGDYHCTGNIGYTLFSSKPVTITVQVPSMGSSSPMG

| Binder | He/Con_2aH |
| --- | --- |
| GpH7-A5/GpH7-B3 variant S337_07I/GpL16-k0 (antibody, human IgG1, kappa, also called He Ab S337_07I) heavy 1: not shown heavy 2: not shown light: DIVMTQSPLSLPVTPGEPASISCQASESLVHSNRNTYLHWYLQKPGQSPQLLIYKVSNRFSGVPDRFSGSGSGTDFTLKISRVEAEDVGVYYCSQNTHVPPTFGQGTKVEIERTVAAPSVFIFPPSDEQLKSGTASVVCLLNNFYPREAKVQWKVDNALQSGNSQESVTEQDSKDSTYSLSSTLTLSKADYEKHKVYACEVTHQGLSSPVTKSFNRGEC | 101 % of control |
| GpH7-A5/GpH7-B3 variant Y296_09D/GpL16-k0 (antibody, human IgG1, kappa, also called He Ab Y296_09D) heavy 1: not shown heavy 2: not shown light: DIVMTQSPLSLPVTPGEPASISCQASESLVHSNRNTYLHWYLQKPGQSPQLLIYKVSNRFSGVPDRFSGSGSGTDFTLKISRVEAEDVGVYYCSQNTHVPPTFGQGTKVEIERTVAAPSVFIFPPSDEQLKSGTASVVCLLNNFYPREAKVQWKVDNALQSGNSQESVTEQDSKDSTYSLSSTLTLSKADYEKHKVYACEVTHQGLSSPVTKSFNRGEC | 104 % of control |
| GpH7-A5/GpH7-B3 variant Y296_16H/GpL16-k0 (antibody, human IgG1, kappa, also called He Ab Y296_16H) heavy 1: not shown heavy 2: not shown light: DIVMTQSPLSLPVTPGEPASISCQASESLVHSNRNTYLHWYLQKPGQSPQLLIYKVSNRFSGVPDRFSGSGSGTDFTLKISRVEAEDVGVYYCSQNTHVPPTFGQGTKVEIERTVAAPSVFIFPPSDEQLKSGTASVVCLLNNFYPREAKVQWKVDNALQSGNSQESVTEQDSKDSTYSLSSTLTLSKADYEKHKVYACEVTHQGLSSPVTKSFNRGEC | 104 % of control |
| GpH7-A5/GpH7-B3 variant K326_19Q/GpL16-k0 (antibody, human IgG1, kappa, also called He Ab K326_19Q) heavy 1: not shown heavy 2: not shown light: DIVMTQSPLSLPVTPGEPASISCQASESLVHSNRNTYLHWYLQKPGQSPQLLIYKVSNRFSGVPDRFSGSGSGTDFTLKISRVEAEDVGVYYCSQNTHVPPTFGQGTKVEIERTVAAPSVFIFPPSDEQLKSGTASVVCLLNNFYPREAKVQWKVDNALQSGNSQESVTEQDSKDSTYSLSSTLTLSKADYEKHKVYACEVTHQGLSSPVTKSFNRGEC | 101 % of control |
| GpH7-A5/GpH7-B3 variant K326_10E/GpL16-k0 (antibody, human IgG1, kappa, also called He Ab K326_10E) heavy 1: not shown heavy 2: not shown light: DIVMTQSPLSLPVTPGEPASISCQASESLVHSNRNTYLHWYLQKPGQSPQLLIYKVSNRFSGVPDRFSGSGSGTDFTLKISRVEAEDVGVYYCSQNTHVPPTFGQGTKVEIERTVAAPSVFIFPPSDEQLKSGTASVVCLLNNFYPREAKVQWKVDNALQSGNSQESVTEQDSKDSTYSLSSTLTLSKADYEKHKVYACEVTHQGLSSPVTKSFNRGEC | 102 % of control |
| GpH7-A5/GpH7-B3 variant K326_06M/GpL16-k0 (antibody, human IgG1, kappa, also called He Ab K326_06M) heavy 1: not shown heavy 2: not shown light: DIVMTQSPLSLPVTPGEPASISCQASESLVHSNRNTYLHWYLQKPGQSPQLLIYKVSNRFSGVPDRFSGSGSGTDFTLKISRVEAEDVGVYYCSQNTHVPPTFGQGTKVEIERTVAAPSVFIFPPSDEQLKSGTASVVCLLNNFYPREAKVQWKVDNALQSGNSQESVTEQDSKDSTYSLSSTLTLSKADYEKHKVYACEVTHQGLSSPVTKSFNRGEC | 103 % of control |
| GpH7-A5/GpH7-B3 variant T335_18N/GpL16-k0 (antibody, human IgG1, kappa, also called He Ab T335_18N) heavy 1: not shown heavy 2: not shown light: DIVMTQSPLSLPVTPGEPASISCQASESLVHSNRNTYLHWYLQKPGQSPQLLIYKVSNRFSGVPDRFSGSGSGTDFTLKISRVEAEDVGVYYCSQNTHVPPTFGQGTKVEIERTVAAPSVFIFPPSDEQLKSGTASVVCLLNNFYPREAKVQWKVDNALQSGNSQESVTEQDSKDSTYSLSSTLTLSKADYEKHKVYACEVTHQGLSSPVTKSFNRGEC | 103 % of control |
| GpH7-A5/GpH7-B3 variant G236_03V/GpL16-k0 (antibody, human IgG1, kappa, also called He Ab G236_03V) heavy 1: not shown heavy 2: not shown light: DIVMTQSPLSLPVTPGEPASISCQASESLVHSNRNTYLHWYLQKPGQSPQLLIYKVSNRFSGVPDRFSGSGSGTDFTLKISRVEAEDVGVYYCSQNTHVPPTFGQGTKVEIERTVAAPSVFIFPPSDEQLKSGTASVVCLLNNFYPREAKVQWKVDNALQSGNSQESVTEQDSKDSTYSLSSTLTLSKADYEKHKVYACEVTHQGLSSPVTKSFNRGEC | 119 % of control |
| GpH7-A5/GpH7-B3 variant A330_16H/GpL16-k0 (antibody, human IgG1, kappa, also called He Ab A330_16H) heavy 1: not shown heavy 2: not shown light: DIVMTQSPLSLPVTPGEPASISCQASESLVHSNRNTYLHWYLQKPGQSPQLLIYKVSNRFSGVPDRFSGSGSGTDFTLKISRVEAEDVGVYYCSQNTHVPPTFGQGTKVEIERTVAAPSVFIFPPSDEQLKSGTASVVCLLNNFYPREAKVQWKVDNALQSGNSQESVTEQDSKDSTYSLSSTLTLSKADYEKHKVYACEVTHQGLSSPVTKSFNRGEC | 101 % of control |
| GpH7-A5/GpH7-B3 variant G236_07I/GpL16-k0 (antibody, human IgG1, kappa, also called He Ab G236_07I) heavy 1: not shown heavy 2: not shown light: DIVMTQSPLSLPVTPGEPASISCQASESLVHSNRNTYLHWYLQKPGQSPQLLIYKVSNRFSGVPDRFSGSGSGTDFTLKISRVEAEDVGVYYCSQNTHVPPTFGQGTKVEIERTVAAPSVFIFPPSDEQLKSGTASVVCLLNNFYPREAKVQWKVDNALQSGNSQESVTEQDSKDSTYSLSSTLTLSKADYEKHKVYACEVTHQGLSSPVTKSFNRGEC | 115 % of control |
| GpH7-A5/GpH7-B3 variant I336_06M/GpL16-k0 (antibody, human IgG1, kappa, also called He Ab I336_06M) heavy 1: not shown heavy 2: not shown light: DIVMTQSPLSLPVTPGEPASISCQASESLVHSNRNTYLHWYLQKPGQSPQLLIYKVSNRFSGVPDRFSGSGSGTDFTLKISRVEAEDVGVYYCSQNTHVPPTFGQGTKVEIERTVAAPSVFIFPPSDEQLKSGTASVVCLLNNFYPREAKVQWKVDNALQSGNSQESVTEQDSKDSTYSLSSTLTLSKADYEKHKVYACEVTHQGLSSPVTKSFNRGEC | 106 % of control |
| GpH7-A5/GpH7-B3 variant S337_20W/GpL16-k0 (antibody, human IgG1, kappa, also called He Ab S337_20W) heavy 1: not shown heavy 2: not shown light: DIVMTQSPLSLPVTPGEPASISCQASESLVHSNRNTYLHWYLQKPGQSPQLLIYKVSNRFSGVPDRFSGSGSGTDFTLKISRVEAEDVGVYYCSQNTHVPPTFGQGTKVEIERTVAAPSVFIFPPSDEQLKSGTASVVCLLNNFYPREAKVQWKVDNALQSGNSQESVTEQDSKDSTYSLSSTLTLSKADYEKHKVYACEVTHQGLSSPVTKSFNRGEC | 102 % of control |
| GpH7-A5/GpH7-B3 variant I336_08L/GpL16-k0 (antibody, human IgG1, kappa, also called He Ab I336_08L) heavy 1: not shown heavy 2: not shown light: DIVMTQSPLSLPVTPGEPASISCQASESLVHSNRNTYLHWYLQKPGQSPQLLIYKVSNRFSGVPDRFSGSGSGTDFTLKISRVEAEDVGVYYCSQNTHVPPTFGQGTKVEIERTVAAPSVFIFPPSDEQLKSGTASVVCLLNNFYPREAKVQWKVDNALQSGNSQESVTEQDSKDSTYSLSSTLTLSKADYEKHKVYACEVTHQGLSSPVTKSFNRGEC | 106 % of control |
| GpH7-A5/GpH7-B3 variant H268_19Q/GpL16-k0 (antibody, human IgG1, kappa, also called He Ab H268_19Q) heavy 1: not shown heavy 2: not shown light: DIVMTQSPLSLPVTPGEPASISCQASESLVHSNRNTYLHWYLQKPGQSPQLLIYKVSNRFSGVPDRFSGSGSGTDFTLKISRVEAEDVGVYYCSQNTHVPPTFGQGTKVEIERTVAAPSVFIFPPSDEQLKSGTASVVCLLNNFYPREAKVQWKVDNALQSGNSQESVTEQDSKDSTYSLSSTLTLSKADYEKHKVYACEVTHQGLSSPVTKSFNRGEC | 102 % of control |
| GpH7-A5/GpH7-B3 variant E333_09D/GpL16-k0 (antibody, human IgG1, kappa, also called He Ab E333_09D) heavy 1: not shown heavy 2: not shown light: DIVMTQSPLSLPVTPGEPASISCQASESLVHSNRNTYLHWYLQKPGQSPQLLIYKVSNRFSGVPDRFSGSGSGTDFTLKISRVEAEDVGVYYCSQNTHVPPTFGQGTKVEIERTVAAPSVFIFPPSDEQLKSGTASVVCLLNNFYPREAKVQWKVDNALQSGNSQESVTEQDSKDSTYSLSSTLTLSKADYEKHKVYACEVTHQGLSSPVTKSFNRGEC | 103 % of control |
| GpH7-A5/GpH7-B3 variant T335_20W/GpL16-k0 (antibody, human IgG1, kappa, also called He Ab T335_20W) heavy 1: not shown heavy 2: not shown light: DIVMTQSPLSLPVTPGEPASISCQASESLVHSNRNTYLHWYLQKPGQSPQLLIYKVSNRFSGVPDRFSGSGSGTDFTLKISRVEAEDVGVYYCSQNTHVPPTFGQGTKVEIERTVAAPSVFIFPPSDEQLKSGTASVVCLLNNFYPREAKVQWKVDNALQSGNSQESVTEQDSKDSTYSLSSTLTLSKADYEKHKVYACEVTHQGLSSPVTKSFNRGEC | 105 % of control |
| GpH7-A5/GpH7-B3 variant S337_08L/GpL16-k0 (antibody, human IgG1, kappa, also called He Ab S337_08L) heavy 1: not shown heavy 2: not shown light: DIVMTQSPLSLPVTPGEPASISCQASESLVHSNRNTYLHWYLQKPGQSPQLLIYKVSNRFSGVPDRFSGSGSGTDFTLKISRVEAEDVGVYYCSQNTHVPPTFGQGTKVEIERTVAAPSVFIFPPSDEQLKSGTASVVCLLNNFYPREAKVQWKVDNALQSGNSQESVTEQDSKDSTYSLSSTLTLSKADYEKHKVYACEVTHQGLSSPVTKSFNRGEC | 100 % of control |
| GpH7-A5/GpH7-B3 variant H268_02A/GpL16-k0 (antibody, human IgG1, kappa, also called He Ab H268_02A) heavy 1: not shown heavy 2: not shown light: DIVMTQSPLSLPVTPGEPASISCQASESLVHSNRNTYLHWYLQKPGQSPQLLIYKVSNRFSGVPDRFSGSGSGTDFTLKISRVEAEDVGVYYCSQNTHVPPTFGQGTKVEIERTVAAPSVFIFPPSDEQLKSGTASVVCLLNNFYPREAKVQWKVDNALQSGNSQESVTEQDSKDSTYSLSSTLTLSKADYEKHKVYACEVTHQGLSSPVTKSFNRGEC | 114 % of control |
| GpH7-A5/GpH7-B3 variant Y296_04F/GpL16-k0 (antibody, human IgG1, kappa, also called He Ab Y296_04F) heavy 1: not shown heavy 2: not shown light: DIVMTQSPLSLPVTPGEPASISCQASESLVHSNRNTYLHWYLQKPGQSPQLLIYKVSNRFSGVPDRFSGSGSGTDFTLKISRVEAEDVGVYYCSQNTHVPPTFGQGTKVEIERTVAAPSVFIFPPSDEQLKSGTASVVCLLNNFYPREAKVQWKVDNALQSGNSQESVTEQDSKDSTYSLSSTLTLSKADYEKHKVYACEVTHQGLSSPVTKSFNRGEC | 100 % of control |
| GpH7-A5/GpH7-B3 variant V266_08L/GpL16-k0 (antibody, human IgG1, kappa, also called He Ab V266_08L) heavy 1: not shown heavy 2: not shown light: DIVMTQSPLSLPVTPGEPASISCQASESLVHSNRNTYLHWYLQKPGQSPQLLIYKVSNRFSGVPDRFSGSGSGTDFTLKISRVEAEDVGVYYCSQNTHVPPTFGQGTKVEIERTVAAPSVFIFPPSDEQLKSGTASVVCLLNNFYPREAKVQWKVDNALQSGNSQESVTEQDSKDSTYSLSSTLTLSKADYEKHKVYACEVTHQGLSSPVTKSFNRGEC | 104 % of control |
| GpH7-A5/GpH7-B3 variant H268_18N/GpL16-k0 (antibody, human IgG1, kappa, also called He Ab H268_18N) heavy 1: not shown heavy 2: not shown light: DIVMTQSPLSLPVTPGEPASISCQASESLVHSNRNTYLHWYLQKPGQSPQLLIYKVSNRFSGVPDRFSGSGSGTDFTLKISRVEAEDVGVYYCSQNTHVPPTFGQGTKVEIERTVAAPSVFIFPPSDEQLKSGTASVVCLLNNFYPREAKVQWKVDNALQSGNSQESVTEQDSKDSTYSLSSTLTLSKADYEKHKVYACEVTHQGLSSPVTKSFNRGEC | 112 % of control |
| GpH7-A5/GpH7-B3 variant K334_04F/GpL16-k0 (antibody, human IgG1, kappa, also called He Ab K334_04F) heavy 1: not shown heavy 2: not shown light: DIVMTQSPLSLPVTPGEPASISCQASESLVHSNRNTYLHWYLQKPGQSPQLLIYKVSNRFSGVPDRFSGSGSGTDFTLKISRVEAEDVGVYYCSQNTHVPPTFGQGTKVEIERTVAAPSVFIFPPSDEQLKSGTASVVCLLNNFYPREAKVQWKVDNALQSGNSQESVTEQDSKDSTYSLSSTLTLSKADYEKHKVYACEVTHQGLSSPVTKSFNRGEC | 106 % of control |
